In the data set the test system is MS2 coat protein. In words: apparent KD of MS2 coat protein; designed switch direction (-1 OFF switch, 1 ON switch): 1; higher = weaker reporter binding. A digest of the protocol:
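For each design, the apparent KD is the median over clusters of curves fitted to normalised cluster fluorescence. Clusters held RNA switches with common flanks, transcribed on Illumina chips by stalled E. coli RNA polymerase. These were titrated with SNAP-549-labelled MS2 coat protein, doubling from 0.7 or 1.5 nM to 3 µM, without input, with 200 uM small-molecule ligand, or with an oligonucleotide input.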

Where [1] appears, read: input ligand: microRNA oligo, concentration not stated.
Setting [2] is: Eterna round: R95, input ligand: FMN 200 uM.
Where [3] appears, read: Eterna round: R95, input ligand: microRNA oligo, concentration not stated.
Where [4] appears, read: Eterna round: R95, input ligand: none.

As to “GGAGAACAUGAGGAUCACCCAUGUGGAUGGGCGCUAGGAUAUGCGAGAGGGUGAAGAGAAGCAGAAGGAGUGGAUA [JR_SS1_Sub036] (Eterna round: R96, puzzle: Same State 1)”, the “apparent KD of MS2 coat protein” value is, setting by setting: (input ligand: FMN 200 uM) 130 nM; under setting [1], 96.6 nM; (input ligand: none) 147 nM.

As to “GGAGAACAUGAGGAUCACCCAUGUGGAUGGGCGCUAGGAUAUGCGAGAGGGUGAAGAGAAGCAGAAGGAGUGGAUA [JR_SS1_Sub036] (puzzle: Same State 1)”, the “apparent KD of MS2 coat protein” value was 101 nM under setting [2], 104 nM under setting [3] and 161 nM under setting [4].

Regarding “GGAGCCGGCACCGAGGAUAUUCAUAUUAAAACAUGAGGAUCACCCAUGUAGGCCAGAAGGCUUUGGGAGAAGGCGGAUCGGCUCG [Xeonanis - 3] (Eterna round: R96, puzzle: Same State 2)”, the “apparent KD of MS2 coat protein” value turned out to be 22.1 nM (input ligand: FMN 200 uM), 148 nM under setting [1] and 568 nM (input ligand: none).

Take “GGAGCCGGCACCGAGGAUAUUCAUAUUAAAACAUGAGGAUCACCCAUGUAGGCCAGAAGGCUUUGGGAGAAGGCGGAUCGGCUCG [Xeonanis - 3] (puzzle: Same State 2)”: the “apparent KD of MS2 coat protein” value by setting is: under setting [2], 25.3 nM; under setting [3], 310 nM; under setting [4], 546 nM.

As for “GGAGCCGGCCUAGGAUAUUUCAUAAUUUAACAUGAGGAUCACCCAUGUAGGCCAGAAGGCCUUGGGAAGAAGGAGGUCGGCUCC [Loop Effect - U26,U27,U28] (Eterna round: R96, puzzle: Same State NG 2)”, the “apparent KD of MS2 coat protein” value reads like this: (input ligand: FMN 200 uM) 17.4 nM; under setting [1], 53.6 nM; (input ligand: none) 76.9 nM.

As for “GGAGCCGGCCUAGGAUAUUUCAUUAUUAAACAUGAGGAUCACCCAUGUAGGCCAGAAGGCCUUGGGAAGAAGGAGGUCGGCUCC [Loop Effect - U24,U26,U28] (Eterna round: R96, puzzle: Same State NG 2)”, the “apparent KD of MS2 coat protein” value is, setting by setting: (input ligand: FMN 200 uM) 17.1 nM; under setting [1], 49.6 nM; (input ligand: none) 68.5 nM.

Take “GGCAAUAUCACAGGAUAUUGGAAAGGAAGUGUACAAGAAGGGUGAUAGUGCCUCAGCAACAUGAGGAUCACCCAUGUACUGAGC [PowerStrip SSNG 1.29] (Eterna round: R96, puzzle: Same State NG 1)”: the “apparent KD of MS2 coat protein” value is, setting by setting: (input ligand: FMN 200 uM) 121 nM; under setting [1], 43.6 nM; (input ligand: none) 113 nM.

For “GGCAGUCCGACACAGGAUAUGGGUAACGAAACAUGAGGAUCACCCAUGUGGAAACAUCGGGUUGCCUAGAAGGGUGGAAAGAUUG [Xeti] (Eterna round: R96, puzzle: Same State 2)”, the “apparent KD of MS2 coat protein” value runs as follows: (input ligand: FMN 200 uM) 32.4 nM; under setting [1], 71.6 nM; (input ligand: none) 124 nM.

Turning to “GGCUAGGAUAUCUGCAGGAUCACCGCGGAGAAGGAGCUAAGCUAGGAUAUCCGCAGGAUCACCGCGGAGAAGGAGCAUAAUAUA [pwkr ssNG3 DX 2xF5 +2xFMN.15] (Eterna round: R96, puzzle: Same State NG 3)”, the “apparent KD of MS2 coat protein” value reads like this: (input ligand: FMN 200 uM) 81.5 nM; under setting [1], 20.3 nM; (input ligand: none) 18.1 nM.

Take “GGCUAGGAUAUCUGCAGGAUCACCGCGGAGAAGGAGCUAAGCUAGGAUAUCCGCAGGAUCACCGCGGAGAAGGAGCAUCAUCUC [pwkr ssNG3 DX 2xF5 +2xFMN.16] (Eterna round: R96, puzzle: Same State NG 3)”: the “apparent KD of MS2 coat protein” value worked out at 135 nM (input ligand: FMN 200 uM), 123 nM under setting [1] and 429 nM (input ligand: none).

Turning to “GGUACUAUCACAGGAUAUGCUAUCCUUUGGGUAGCAGAAGGGUGGUACAUGAGGAUCACCCAUGUGGUGCCAGGGCGUGAGCCC [JL SSNG1 1.97] (Eterna round: R96, puzzle: Same State NG 1)”, the “apparent KD of MS2 coat protein” value reads like this: (input ligand: FMN 200 uM) 200 nM; under setting [1], 67.9 nM; (input ligand: none) 318 nM.

For “GGUAGGUUACUACCAAACAUGAGGAUCACCCAUGUUAAUGGGAAGGAUAUGGUACCUAUUUGGUACCAGAAGGUCCAAAUAAUU [Mat - Same State NG 3 - JL Mod - D97] (Eterna round: R96, puzzle: Same State NG 3)”, the “apparent KD of MS2 coat protein” value reads like this: (input ligand: FMN 200 uM) 73.2 nM; under setting [1], 261 nM; (input ligand: none) 596 nM.

Turning to “GGUAGGUUACUACCAAACAUGAGGAUCACCCAUGUUGAUGGGAAGGAUAUGGUACCUUUUAGGUACCAGAAGGUCUAAUCGAUC [NGss mod of JL's mod of Fisker 4] (Eterna round: R96, puzzle: Same State NG 3)”, the “apparent KD of MS2 coat protein” value turned out to be 120 nM (input ligand: FMN 200 uM), 115 nM under setting [1] and 166 nM (input ligand: none).

“GGUAGGUUACUACCAAACUACAUGAGGAUCACCCAUGUGUGGGAGGAUAUGGUACCUAUUUGGUACCAGAAGGUCCAAUUAAUU [Fiskers NG3ss - 6] (Eterna round: R96, puzzle: Same State NG 3)”: the “apparent KD of MS2 coat protein” value amounted to 108 nM (input ligand: FMN 200 uM), 106 nM under setting [1] and 124 nM (input ligand: none).

Regarding “GGUAGGUUACUACCAGACAUGAGGAUCACCCAUGUAAGUGGGAAGGAUAUGGUACCGUUUCGGUACCAGAAGGUCCUAUGUAAG [JL SSNG3 1.45] (Eterna round: R96, puzzle: Same State NG 3)”, the “apparent KD of MS2 coat protein” value is, setting by setting: (input ligand: FMN 200 uM) 269 nM; under setting [1], 88.7 nM; (input ligand: none) 936 nM.

“GGUAUACAUGAGGAUCACCCAUGUCGUAUGACAUGAGGAUAUGUACAGACUUCGGUCUGUACAGAAGGCGUGUGUC [SS1 - 1011 Omei Mod 6] (puzzle: Same State 1)”: the “apparent KD of MS2 coat protein” value under setting [3] was 307 nM.

Turning to “GGUAUCAGCACAGGAUAUGCUAUCCUUUGGGUAGCAGAAGGGUGGACAUGAGGAUCACCCAUGUGGGUGCCAGGGCGUGAGCCC [JL SSNG1 1.86] (Eterna round: R96, puzzle: Same State NG 1)”, the “apparent KD of MS2 coat protein” value (input ligand: FMN 200 uM) was found to be 426 nM, the “apparent KD of MS2 coat protein” value under setting [1] was 75.9 nM and the “apparent KD of MS2 coat protein” value (input ligand: none) amounted to 323 nM.

Turning to “GGUAUCAUCACAGGAUAUGCUAUCCUUUGGGUAGCAGAAGGGUGGAACAUGAGGAUCACCCAUGUGGUGCCAGGGCGUGAGCCC [JL SSNG1 1.89] (Eterna round: R96, puzzle: Same State NG 1)”, the “apparent KD of MS2 coat protein” value by setting is: (input ligand: FMN 200 uM) 177 nM; under setting [1], 583 nM; (input ligand: none) 1880 nM.

In the case of “GGUAUGGACACAGGAUAUGCUAUCCUUUGGGUAGCAGAAGGGUGAACAUGAGGAUCACCCAUGUACGUGCCAGGGCGUGAGCCC [JL SSNG1 1.78] (Eterna round: R96, puzzle: Same State NG 1)”, the “apparent KD of MS2 coat protein” value by setting is: (input ligand: FMN 200 uM) 913 nM; under setting [1], 278 nM; (input ligand: none) 1620 nM.

As for “GGUAUUAACACAGGAUAUGCUUACGAAACGUAAGCAGAAGGGUGGACAUGAGGAUCACCCAUGUUUGUACCAGGGCGUGAGCCC [JL SSNG1 1.71] (Eterna round: R96, puzzle: Same State NG 1)”, the “apparent KD of MS2 coat protein” value was 68.5 nM (input ligand: FMN 200 uM), 271 nM under setting [1] and 652 nM (input ligand: none).

In the case of “GGUCCAGCCUGAGCUGGACAAAAGCAUGUACAUGAGGAUCACCCAUGUUCAUGUACAAGCUUUUUGCUCGUCUUAUA [salish99_208a_r3_045] (puzzle: Sensor for hsa-mir-208a)”, the “apparent KD of MS2 coat protein” value is, setting by setting: under setting [2], 542 nM; under setting [3], 15.4 nM; under setting [4], 696 nM.

“GGUCCAGCCUGAGCUGGACAAAAGCAUGUACAUGAGGAUCACCCAUGUUCAUGUACAAGCUUUUUGCUCGUCUUAUG [salish99_208a_r3_053] (puzzle: Sensor for hsa-mir-208a)”: the “apparent KD of MS2 coat protein” value under setting [2] amounted to 693 nM, the “apparent KD of MS2 coat protein” value under setting [3] was found to be 18.1 nM and the “apparent KD of MS2 coat protein” value under setting [4] was 785 nM.

Consider “GGUCCAGCCUGAGCUGGACUAUAGUAUGUACAUGAGGAUCACCCAUGUCAUGUAUAAGUAUGUUGUUUGUCUUGAAA [Sensorship 4 - Jieux - Sensor for hsa-mir-208a] (puzzle: Sensor for hsa-mir-208a)”, for which the “apparent KD of MS2 coat protein” value under setting [2] is 23.6 nM, the “apparent KD of MS2 coat protein” value under setting [3] stood at 20.1 nM and the “apparent KD of MS2 coat protein” value under setting [4] was 24.2 nM.

As for “GGUCCAUCAUGAGGAUAUGGCACCUUAUUGGUGCCAGAAGGCAUGUCUAUAGACAUGAGGAUCACCCAUGUAAUAAAUUGGACC [Eli NG1ss - 93] (Eterna round: R96, puzzle: Same State NG 1)”, the “apparent KD of MS2 coat protein” value (input ligand: FMN 200 uM) came to 30.2 nM, the “apparent KD of MS2 coat protein” value under setting [1] came to 344 nM and the “apparent KD of MS2 coat protein” value (input ligand: none) was determined as 831 nM.

“GGUCCAUCAUGAGGAUAUGGCACCUUAUUGGUGCCAGAAGGCAUGUCUAUUAGACAUGAGGAUCACCCAUGUAUAAAUUGGACC [Eli NG1ss - 91] (Eterna round: R96, puzzle: Same State NG 1)”: the “apparent KD of MS2 coat protein” value runs as follows: (input ligand: FMN 200 uM) 108 nM; under setting [1], 192 nM; (input ligand: none) 1130 nM.

As to “GGUCGGACCUACAUGAGGAUCACCCAUGUUCCGGAAACGGCAUAGGAUAUCUGUCCGAAAAGGUCAGAGAAGGGUGAACCGACC [Fiskers NG3ss - 74] (Eterna round: R96, puzzle: Same State NG 3)”, the “apparent KD of MS2 coat protein” value runs as follows: (input ligand: FMN 200 uM) 145 nM; under setting [1], 160 nM; (input ligand: none) 162 nM.

As to “GGUCGGACUCACAUGAGGAUCACCCAUGUUGCGGAAACGCGGCAGGAUAUCUGUCCGAAAAGGUCAGAGAAGGGUCAACCGACC [Fiskers NG3ss - 62] (Eterna round: R96, puzzle: Same State NG 3)”, the “apparent KD of MS2 coat protein” value reads like this: (input ligand: FMN 200 uM) 644 nM; under setting [1], 141 nM; (input ligand: none) 199 nM.

For the origin of these results see the supplement of paper PMC9170038.
